Literature values in PMC5340040 (BMC Biochemistry, 2017).

Test system: actin
Details: ref [10]
Excerpt: Actin is a negatively charged structural protein and the most abundant protein in the eukaryotic cells. Actin, released from dead cells, is also present in the saliva. Actin has important roles in cytoskeleton formation, cell division, motility, adhesion, signaling and more. Actin exists in either monomer globular (G) or polymer filament (F) form, which are interconvertible into each other.

B1: eEF1A: eukaryotic elongation factor 1 alpha (protein, UniProt P02994 2-458, looked up)
Elongation factor 1-alpha: GKEKSHINVVVIGHVDSGKSTTTGHLIYKCGGIDKRTIEKFEKEAAELGKGSFKYAWVLDKLKAERERGITIDIALWKFETPKYQVTVIDAPGHRDFIKNMITGTSQADCAILIIAGGVGEFEAGISKDGQTREHALLAFTLGVRQLIVAVNKMDSVKWDESRFQEIVKETSNFIKKVGYNPKTVPFVPISGWNGDNMIEATTNAPWYKGWEKETKAGVVKGKTLLEAIDAIEQPSRPTDKPLRLPLQDVYKIGGIGTVPVGRVETGVIKPGMVVTFAPAGVTTEVKSVEMHHEQLEQGVPGDNVGFNVKNVSVKEIRRGNVCGDAKNDPPKGCASFNATVIVLNHPGQISAGYSPVLDCHTAHIACRFDELLEKNDRRSGKKLEDHPKFLKSGDAALVKFVPSKPMCVEAFSEYPPLGRFAVRDMRQTVAVGVIKSVDKTEKAAKVTKAAQKAAKK
polymerization and bundling of actin, eEF1A: polymerize G-actin to F actin and bundle F-actin into actin bundles
